Square brackets hold non-standard residues; d marks the D form. Dap = NC[C@H](N)C(=O)O
Target: His-tagged SRPK1ΔNS3 (UniProt Q96SB4 1-655)
Assay: MST

Sequence of His-tagged SRPK1ΔNS3 (Q96SB4 other isoform, or with tags, fused parts or gaps mutant): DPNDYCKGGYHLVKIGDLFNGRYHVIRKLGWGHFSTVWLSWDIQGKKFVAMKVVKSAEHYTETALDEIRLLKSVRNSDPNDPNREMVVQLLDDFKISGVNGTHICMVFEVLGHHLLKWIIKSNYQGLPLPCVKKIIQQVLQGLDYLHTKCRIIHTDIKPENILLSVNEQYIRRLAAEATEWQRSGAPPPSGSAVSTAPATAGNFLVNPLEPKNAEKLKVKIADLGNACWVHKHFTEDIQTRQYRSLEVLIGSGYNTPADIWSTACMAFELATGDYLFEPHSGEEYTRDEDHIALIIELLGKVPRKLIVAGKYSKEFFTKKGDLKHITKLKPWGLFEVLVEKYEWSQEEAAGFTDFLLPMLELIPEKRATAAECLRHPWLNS

Ac-RERARTRR[Dap](aryl‑SO2F)RARTRERARTR-NH2 [covalent docking blocker of SRPK (C-DBS)]
Kd: 1470 nM

— article PMC11211491 (2024)
